Measured values published in publication PMC5571166, “Mapping the key residues of SufB and SufD essential for biosynthesis of iron-sulfur clusters” (Scientific Reports, 2017).
Where a chain is given by its changes, count along the chain named.

Legend:
Assay in all cases: SEC; SufBCD complexes co-expressed in E. coli and co-purified on Phenyl FF, Q XL and Sephacryl S-200; eluted from gel filtration at about 160 kDa; subunit composition checked by SDS-PAGE of the purified sample
Settings in all cases: both partners purified
[1] = target: T1, SufB^W287A (Escherichia coli, UniProt P77522 1-495, SufB^W287A)
T1 construct: SufB of the Escherichia coli sufABCDSE operon; source: pBBR-sufAB carrying the mutation, in bacterial extract
T1 sequence: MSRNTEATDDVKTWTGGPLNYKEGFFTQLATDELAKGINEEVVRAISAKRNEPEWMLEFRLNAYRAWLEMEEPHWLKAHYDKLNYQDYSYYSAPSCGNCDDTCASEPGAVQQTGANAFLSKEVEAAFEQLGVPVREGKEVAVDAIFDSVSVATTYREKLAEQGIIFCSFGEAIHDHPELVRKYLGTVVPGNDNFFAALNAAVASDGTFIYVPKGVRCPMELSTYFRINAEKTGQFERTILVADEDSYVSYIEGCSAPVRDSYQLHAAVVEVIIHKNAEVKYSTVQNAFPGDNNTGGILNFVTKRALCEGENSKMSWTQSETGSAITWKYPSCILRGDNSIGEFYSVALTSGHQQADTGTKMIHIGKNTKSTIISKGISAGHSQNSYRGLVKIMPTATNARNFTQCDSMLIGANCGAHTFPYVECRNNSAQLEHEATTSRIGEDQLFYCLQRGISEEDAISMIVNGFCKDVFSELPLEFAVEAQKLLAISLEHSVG

[2] = target: T2, SufB^K303A (Escherichia coli, UniProt P77522 1-495, SufB^K303A)
T2 construct: SufB of the Escherichia coli sufABCDSE operon
T2 sequence: T1 sequence with A287W, K303A

[3] = target: T3, SufB^Q285A (Escherichia coli, UniProt P77522 1-495, SufB^Q285A)
T3 construct: SufB of the Escherichia coli sufABCDSE operon; source: pBBR-sufAB carrying the mutation, in bacterial extract
T3 sequence: T1 sequence with Q285A, A287W

[4] = target: T4, SufB^E434A (Escherichia coli, UniProt P77522 1-495, SufB^E434A)
T4 construct: SufB of the Escherichia coli sufABCDSE operon
T4 sequence: T1 sequence with A287W, E434A

Measured: binding result

B1: SufC (natural protein, Escherichia coli)
chain: MLSIKDLHVSVEDKAILRGLSLDVHPGEVHAIMGPNGSGKSTLSATLAGREDYEVTGGTVEFKGKDLLALSPEDRAGEGIFMAFQYPVEIPGVSNQFFLQTALNAVRSYRGQETLDRFDFQDLMEEKIALLKMPEDLLTRSVNVGFSGGEKKRNDILQMAVLEPELCILDESDSGLDIDALKVVADGVNSLRDGKRSFIIVTHYQRILDYIKPDYVHVLYQGRIVKSGDFTLVKQLEEQGYGWLTEQQ
notes: SufC of the Escherichia coli sufABCDSE operon; also called SufC subunit of the SufBCD complex
binds: all assays above

B2: SufD (natural protein, Escherichia coli)
chain: MAGLPNSSNALQQWHHLFEAEGTKRSPQAQQHLQQLLRTGLPTRKHENWKYTPLEGLINSQFVSIAGEISPQQRDALALTLDSVRLVFVDGRYVPALSDATEGSGYEVSINDDRQGLPDAIQAEVFLHLTESLAQSVTHIAVKRGQRPAKPLLLMHITQGVAGEEVNTAHYRHHLDLAEGAEATVIEHFVSLNDARHFTGARFTINVAANAHLQHIKLAFENPLSHHFAHNDLLLAEDATAFSHSFLLGGAVLRHNTSTQLNGENSTLRINSLAMPVKNEVCDTRTWLEHNKGFCNSRQLHKTIVSDKGRAVFNGLINVAQHAIKTDGQMTNNNLLMGKLAEVDTKPQLEIYADDVKCSHGATVGRIDDEQIFYLRSRGINQQDAQQMIIYAFAAELTEALRDEGLKQQVLARIGQRLPGGAR
notes: SufD of the Escherichia coli sufABCDSE operon; One SufD per SufBCD complex (1:2:1); also called SufD subunit of the SufBCD complex
binds: all assays above
